We go through two substances from US20260209301A1, “Galanin-2 Receptor Agonists” (LIFEARC, priority 2022, published 2026).

For assay [1], the target named is T1, GALR2 (Homo sapiens, UniProt O43603).
T1 sequence (O43603 1-387): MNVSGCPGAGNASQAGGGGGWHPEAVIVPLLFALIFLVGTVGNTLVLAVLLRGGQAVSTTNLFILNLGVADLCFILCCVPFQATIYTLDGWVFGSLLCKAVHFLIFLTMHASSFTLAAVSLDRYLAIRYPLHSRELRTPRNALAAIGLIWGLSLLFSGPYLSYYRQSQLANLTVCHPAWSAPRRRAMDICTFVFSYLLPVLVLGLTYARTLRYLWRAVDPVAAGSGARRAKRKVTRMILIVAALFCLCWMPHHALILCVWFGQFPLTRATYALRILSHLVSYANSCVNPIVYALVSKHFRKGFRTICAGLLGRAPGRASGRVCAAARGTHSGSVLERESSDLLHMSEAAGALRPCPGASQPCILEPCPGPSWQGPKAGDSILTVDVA
The assay can be described thus: β-arrestin recruitment, PathHunter CHO-K1 GALR2 cells. Particulars: Table 2; mean +/− standard deviation, n ≥ 3. Format: cell-based. The method, then:
Ligands were prepared at half log dilutions using cell plating reagent 2. 5 μl of each ligand was added to cells and plates incubated at 37° C. for 90 minutes. DiscoverX PathHunter detection kit (DiscoverX, USA) was added to cells as described my manufacturer's guidelines and plates incubated for 60 minutes at room temperature in the dark. Chemiluminescent signal was measured using the PHERAstar FS (BMG, Germany).

A further assay addresses T2, GALR3 (Homo sapiens, UniProt O60755).
T2 construct: expressed in transfected cells; host or cells: genetically modified HEK293 Gqi cells, transient
T2 sequence (O60755 1-368): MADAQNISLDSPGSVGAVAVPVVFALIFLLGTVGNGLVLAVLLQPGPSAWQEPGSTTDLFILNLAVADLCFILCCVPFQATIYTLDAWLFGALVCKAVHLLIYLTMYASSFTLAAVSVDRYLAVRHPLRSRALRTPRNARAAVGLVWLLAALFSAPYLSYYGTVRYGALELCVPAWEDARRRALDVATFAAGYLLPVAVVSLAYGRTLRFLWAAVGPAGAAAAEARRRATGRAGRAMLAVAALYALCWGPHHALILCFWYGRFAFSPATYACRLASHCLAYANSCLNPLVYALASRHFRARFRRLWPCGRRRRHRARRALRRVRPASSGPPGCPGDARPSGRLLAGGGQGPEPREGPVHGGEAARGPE
Kind of assay: Luciferase reporter gene assay (SRE), HEK293 Gqi cells. The assay is classed as cell-based. On the technique in general: A reporter such as luciferase makes a cellular process visible.

The next assay deals with T3, mouse GalR2 (Mus musculus, UniProt O88854).
T3 sequence (O88854 1-371): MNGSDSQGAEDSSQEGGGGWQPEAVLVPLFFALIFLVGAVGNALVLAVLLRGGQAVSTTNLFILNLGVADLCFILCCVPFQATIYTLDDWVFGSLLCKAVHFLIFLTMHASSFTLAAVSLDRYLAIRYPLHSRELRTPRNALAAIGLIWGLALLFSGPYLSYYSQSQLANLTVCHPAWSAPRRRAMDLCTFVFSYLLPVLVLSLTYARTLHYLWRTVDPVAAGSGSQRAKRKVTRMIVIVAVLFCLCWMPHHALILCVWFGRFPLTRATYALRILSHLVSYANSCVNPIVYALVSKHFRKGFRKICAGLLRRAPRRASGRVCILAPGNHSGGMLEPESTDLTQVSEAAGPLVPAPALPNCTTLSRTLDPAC
Kind of assay: Calcium assay at orthologue receptor. Format: cell-based. As to conditions: Table 8; Calcium assays; mean +/− standard deviation. The text has this: (§1) These species were chosen as they represent potential downstream in vivo models to be used. Within native galanin amino acid residues 1-15 are conserved across species, we would therefore expect the Gal FC fusions comprising amino acids 2 to 13 to retain GalR2 activity in these species. Calcium imaging was used to define receptor activity.

For a further assay, the target named is T4, rat GalR2 (Rattus norvegicus, UniProt O08726).
T4 sequence (O08726 1-372): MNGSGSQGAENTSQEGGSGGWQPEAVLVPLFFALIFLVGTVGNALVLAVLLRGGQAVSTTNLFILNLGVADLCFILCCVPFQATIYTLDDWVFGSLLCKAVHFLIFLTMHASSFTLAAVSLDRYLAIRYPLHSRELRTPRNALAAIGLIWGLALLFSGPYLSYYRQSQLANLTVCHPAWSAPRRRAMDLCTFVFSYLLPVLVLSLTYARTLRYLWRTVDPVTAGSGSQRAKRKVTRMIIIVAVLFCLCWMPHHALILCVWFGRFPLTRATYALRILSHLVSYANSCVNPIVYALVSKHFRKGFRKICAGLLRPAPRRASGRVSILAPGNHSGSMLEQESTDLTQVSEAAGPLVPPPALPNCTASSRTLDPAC
Kind of assay: Calcium assay at orthologue receptor. The assay is classed as cell-based. Particulars: Table 8; Calcium assays; mean +/− standard deviation. An excerpt:
These species were chosen as they represent potential downstream in vivo models to be used. […] Calcium imaging was used to define receptor activity.

The next assay concerns the target cynomolgus GalR2. The assay can be described thus: Calcium assay at orthologue receptor. The assay is classed as cell-based, Macaca fascicularis. As to conditions: Table 8; Calcium assays; mean +/− standard deviation.
Text: as §1

Assay [2] deals with T1, GALR2. Kind of assay: Calcium assay, CHO GalR2 cells (FLIPR). Particulars: mean +/− standard deviation.
Experimental: CHO GalR2 cells were plated at 10,000 cells per well in black clear bottom plates (corning, USA) and incubated overnight at 37° C. with 5% CO2. […] Ligands were prepared at a 5× concentration and added to cells using the FLIPR (Molecular Devices, USA). Baseline was typically 20 seconds before ligand addition. […] For analysis, fluorescence was normalised to pre-addition baseline and peak fluorescence used for all quantification.
In brief, a panel of functional cell-based microtiter-plate assays were developed using recombinant GalR1 and GalR2 receptors stably expressed in CHO cells. […] Nominally this equated to 10 serial (~3fold) dilutions with highest concentrations of 10-1 μM as appropriate.
In addition to generating both potency and efficacy estimates, the latter being expressed relative to native galanin, both G-protein and non-G-Protein signalling pathways were measured.
Assay [3] has as its target T1, GALR2. The assay can be described thus: Radioligand binding, [125I]galanin displacement on CHO GalR2 membranes. Particulars: recombinant GalR2 membranes, FIG. 3. The arrangement: expressed in transfected cells; host or cells: CHO (Flp-In, pcDNA5/FRT). The method, then: Cell membrane homogenates (4 μg protein—from CHO cells expressing the GalR2 receptor) were incubated for 120 minutes at 22° C. with 0.05 nM [^125I] galanin in the absence or presence of test compound in a buffer containing 25 mM Tris-HCl (pH 7.4, 10 mM MgCl2 and 0.5% BSA. Non-specific binding was determined in the presence of 1 μM porcine galanin. Following incubation, samples were filtered rapidly under vacuum through glass fiber filters (GF/B, Packard) pre-soaked with 0.3% PEI and rinsed several times with ice cold 50 mM Tris-HCl using a 96 sample cell harvester (Unifilter, Packard). The filters are dried then counted for radioactivity in a scintillation counter (Topcount, Packard) using a scintillation cocktail (Microscint 0), Packard). The results are expressed as a percent inhibition of the control radioligand specific binding. The standard reference compound is porcine galanin which is tested in each experiment at several concentrations to obtain a competition curve from which its IC50 is generated.
Briefly, cell overexpressing recombinant GalR2 were used to for crude membrane preparations. Competition style binding assays were then used to monitor displacement of [125I]-Galanin using a range of concentrations of Gal-FC fusion. After a period of incubation data were expressed relative the maximum specific Galanin bound.

The next assay concerns the target T5, GalR1 (Homo sapiens, UniProt P47211).
T5 sequence (P47211 1-349): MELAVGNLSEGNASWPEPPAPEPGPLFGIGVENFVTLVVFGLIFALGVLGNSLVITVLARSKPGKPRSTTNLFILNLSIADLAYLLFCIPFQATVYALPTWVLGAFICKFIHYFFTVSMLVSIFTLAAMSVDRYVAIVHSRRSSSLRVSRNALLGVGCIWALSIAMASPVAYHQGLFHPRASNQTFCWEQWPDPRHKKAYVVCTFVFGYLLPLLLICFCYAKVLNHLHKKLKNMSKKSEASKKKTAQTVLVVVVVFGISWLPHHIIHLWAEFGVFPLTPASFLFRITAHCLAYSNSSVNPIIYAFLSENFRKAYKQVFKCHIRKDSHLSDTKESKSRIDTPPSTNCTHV
The assay can be described thus: Ala scanning of Gal2-13 peptides, activity at GalR1. The assay is classed as cell-based. Particulars: peptides vs Gal2-13, FIG. 5. The text has this: Replacement of residues 2, 3, 5, 6, 9, 10, 11, 12 (corresponding to W, T, L, S, Y, L, L, G) led to a significant decrease in activity at GalR2 (FIG. 5). Replacement of residues 4, 8, 13 (corresponding to N, G, P) caused no decrease in activity. […] Of note, none of the substitutions increased GalR2 or GalR1 agonistic activity.

Marks after values point to notes of the source that are not given here.

Experimental for GALR3: GalR3 activity was measured, alongside GalR1 and GalR2, using a luciferase reporter assay. A reporter plasmid and a receptor plasmid, were transiently transfected into the target cell line. The reporter plasmid contains a serum response element (SRE) or a nuclear factor of activated T-cells response element (NFAT-RE) which is coupled to a luciferase transcript and induces expression of the luciferase upon a specific G-protein (Gai uses SRE; Gaq uses NFAT-RE) activation. The target receptor is constantly expressed after cell transfection. For GALR1 and GALR3 screening, genetically modified HEK293 Gqi cells were transiently transfected with the SRE reporter and the receptor (GALR1 and GALR3) plasmids. For GALR2 screening, HEK293 cells were transiently transfected with the NFAT-RE reporter and the receptor (GALR2) plasmid. […] The luciferase activity was analyzed with the Bright-Glo Luciferase Assay (Promega) in an EnSpire plate reader.
Therefore, to measure activity at the GalR3 receptor a reporter gene assay was used. In this system MAP/ERK signalling is used to measure receptor activity. Activation of Gqi coupled receptors leads to downstream activation of ERK1/2. The activated ERK translocates to the nucleus where it phosphorylates and activates transcription factors, which lead to the binding of Serum response element (SRE). In this assay SRE activation induces expression of a luciferase reporter gene. […] To ensure this effect was not an artifact of the reporter gene assay, GalR1 and GalR2 reporter assays (using SRE and NFAT-RE respectively) were also run.

On to “Gal2-12FC: galanin 2-12, AEAAAKEAAAKA linker, human IgG1 FC; SEQ ID NO: 25”, for which, in the assay with GALR2 [1], the “GalR2 Beta Arrestin, mean pEC50” value is listed as 7.6 +/− 0.2*. Further, the “activity at GalR3 (in words)” value in the assay with GALR3 is “no measurable activity”. In addition, in the assay with mouse GalR2, the “Mouse GalR2 activity” value is recorded as 6.8 +/− 0.1. In addition, in the assay with rat GalR2, the “Rat GalR2 activity” value is recorded as 6.6 +/− 0.4. The “Cynomolgus GalR2 activity” value at cynomolgus GalR2 is 7.7 +/− 0.4. In addition, in the assay with GALR2 [2] (Table 2, n ≥ 3), the “GalR2 Calcium, mean pEC50” value is reported as 6.3 +/− 0.3. Also, the “GalR2 activity (calcium assay), warhead length” value in the assay with GALR2 [2] (Table 6, highest concentration tested 10 μM) is given as 6.6 +/− 0.0. Besides, the “pIC50, displacement of [125I]-Galanin binding” value with GALR2 [3] is listed as 7.24.
With “Gal2-13ala8: ala scanning peptide WTLNSAAYLLGP, SEQ ID NO: 43”, the “effect of Ala substitution on GalR1 activity” value with GalR1 was “reduced GalR1 activity”.
